# Measurements as given in US20230201308A1, “TREATMENT OF CORONAVIRUS INFECTION WITH […]” (Eiger Biopharmaceuticals, Inc., priority 2020, published 2023).
# Like-named read-outs stand apart in the source and are kept apart here.
# B1: pegylated interferon lambda-1a (protein)
# chain: MKPTTTGKGCHIGRFKSLSPQELASFKKARDALEESLKLKNWSCSSPVFPGNWDLRLLQVRERPVALEAELALTLKVLEAAAGPALEDVLDQPLHTLHHILSQLQACIQPQPTAGPRPRGRLHHWLHRLQEAPKKESAGCLEASVTFNLFRLLTRDLKYVADGNLSLRTSTHPEST
# modifications: PEG
# notes: 180 mcg subcutaneous injection
# Test system: SARS-CoV-2
# [1] = High risk population, Brazil and Toronto, N = 709
# [2] = High risk population, Brazil and Toronto, N = 709 vs placebo N = 836
# [3] = High risk population, Brazil, N = 698
molecule,measurement,setting,value
B1,ER visit ≥6 h or hospitalization due to COVID-19: events/patients,All,25/931
same,All cause death or hospitalization for COVID-19: events/patients,"All, Brazil+Toronto",24/931
same,"All cause death or hospitalization for COVID-19: Bayes prob, Dichotomous","All, vs placebo",0.951
same,"All cause death or hospitalization for COVID-19: Bayes prob, TTE","All, vs placebo",0.9557
same,"All cause death or hospitalization for COVID-19: HR (95% CrI), TTE","All, vs placebo","0.65 (0.39, 1.05)"
same,"All cause death or hospitalization for COVID-19: RR (95% CrI), Dichotomous","All, vs placebo","0.66 (0.40, 1.07)"
same,"ER visit ≥6 h or hospitalization due to COVID-19: Bayes prob, Dichotomous","All, vs placebo",0.999
same,"ER visit ≥6 h or hospitalization due to COVID-19: Bayes prob, TTE","All, vs placebo",0.9995
same,"ER visit ≥6 h or hospitalization due to COVID-19: HR (95% CrI), TTE","All, vs placebo","0.47 (0.29, 0.73)"
same,"ER visit ≥6 h or hospitalization due to COVID-19: RR (95% CrI), Dichotomous","All, vs placebo","0.49 (0.30, 0.76)"
same,"HR, all-cause mortality or hospitalization due to COVID-19, Time-to-Event analysis",Brazil+Toronto combined,0.65
same,"RR, all-cause mortality or hospitalization due to COVID-19",Brazil+Toronto combined,0.66
same,"All cause ER visit >6 h, hospitalization, or death: percentage",[1],(4.2%)
same,"All cause ER visit >6 h, hospitalization, or death: total",[1],30
same,"All cause ER visit, hospitalization, or death: percentage",[1],(13.7%)
same,"All cause ER visit, hospitalization, or death: total",[1],97
same,All cause death or hospitalization due to COVID-19: percentage,[1],(3.1%)
same,All cause death or hospitalization due to COVID-19: total,[1],22
same,Days of hospitalization,[1],0 days
same,Days on mechanical ventilation,[1],0 days
same,Days to recovery: median,[1],14 days
same,Death due to COVID-19: percentage,[1],(0.1%)
same,Death due to COVID-19: total,[1],1
same,Death or hospitalization due to COVID-19: percentage,[1],(2.8%)
same,Death or hospitalization due to COVID-19: total,[1],20
same,Hospitalization for COVID-19 (excluding those resulting in death): percentage,[1],(2.7%)
same,Hospitalization for COVID-19 (excluding those resulting in death): total,[1],19
same,Hospitalization or ER (any duration) for COVID-19: percentage,[1],(10.7%)
same,Hospitalization or ER (any duration) for COVID-19: total,[1],76
same,Hospitalization or ER >6 h for COVID-19: percentage,[1],(3.1%)
same,Hospitalization or ER >6 h for COVID-19: total,[1],22
same,Mechanical ventilation: percentage,[1],(0.6%)
same,Mechanical ventilation: total,[1],4
same,"All cause ER visit >6 h, hospitalization, or death: Pr (Superiority)",[2],0.983
same,"All cause ER visit >6 h, hospitalization, or death: RR (95% CrI), estimated treatment effect",[2],"0.64 (0.41, 0.97)"
same,"All cause ER visit, hospitalization, or death: Pr (Superiority)",[2],0.887
same,"All cause ER visit, hospitalization, or death: RR (95% CrI), estimated treatment effect",[2],"0.86 (0.68, 1.10)"
same,All cause death or hospitalization due to COVID-19: Pr (Superiority),[2],0.927
same,"All cause death or hospitalization due to COVID-19: RR (95% CrI), estimated treatment effect",[2],"0.69 (0.41, 1.14)"
same,"Days of hospitalization: MD (95% CrI), estimated treatment effect",[2],"−1.39 (−4.38, 1.20)"
same,Days of hospitalization: Pr (Superiority),[2],0.8509
same,"Days on mechanical ventilation: MD (95% CrI), estimated treatment effect",[2],"−4.47 (−6.89, 3.09)"
same,Days on mechanical ventilation: Pr (Superiority),[2],0.9052
same,"Days to death for COVID-19: HR (95% CrI), estimated treatment effect",[2],"0.23 (0.01, 1.95)"
same,Days to death for COVID-19: Pr (Superiority),[2],0.9040
same,"Days to hospitalization for COVID-19: HR (95% CrI), estimated treatment effect",[2],"0.57 (0.33, 0.99)"
same,Days to hospitalization for COVID-19: Pr (Superiority),[2],0.9770
same,"Days to hospitalization or ER visit >6 h for COVID-19: HR (95% CrI), estimated treatment effect",[2],"0.47 (0.29, 0.74)"
same,Days to hospitalization or ER visit >6 h for COVID-19: Pr (Superiority),[2],0.9992
same,"Days to hospitalization or death for COVID-19: HR (95% CrI), estimated treatment effect",[2],"0.61 (0.35, 1.07)"
same,Days to hospitalization or death for COVID-19: Pr (Superiority),[2],0.9610
same,"Days to recovery: HR (95% CrI), estimated treatment effect",[2],"0.93 (0.83, 1.04)"
same,Days to recovery: Pr (Superiority),[2],0.8862
same,Death due to COVID-19: Pr (Superiority),[2],0.847
same,"Death due to COVID-19: RR (95% CrI), estimated treatment effect",[2],"0.42 (0.05, 2.06)"
same,Death or hospitalization due to COVID-19: Pr (Superiority),[2],0.961
same,"Death or hospitalization due to COVID-19: RR (95% CrI), estimated treatment effect",[2],"0.63 (0.37, 1.05)"
same,Hospitalization for COVID-19 (excluding those resulting in death): Pr (Superiority),[2],0.931
same,"Hospitalization for COVID-19 (excluding those resulting in death): RR (95% CrI), estimated treatment effect",[2],"0.67 (0.38, 1.14)"
same,Hospitalization or ER (any duration) for COVID-19: Pr (Superiority),[2],0.992
same,"Hospitalization or ER (any duration) for COVID-19: RR (95% CrI), estimated treatment effect",[2],"0.72 (0.55, 0.94)"
same,Hospitalization or ER >6 h for COVID-19: Pr (Superiority),[2],0.999
same,"Hospitalization or ER >6 h for COVID-19: RR (95% CI), estimated treatment effect",[2],"0.49 (0.30, 0.78)"
same,Mechanical ventilation: Pr (Superiority),[2],0.716
same,"Mechanical ventilation: RR (95% CrI), estimated treatment effect",[2],"0.72 (0.21, 2.20)"
same,"All cause ER visit >6 h, hospitalization, or death: percentage",[3],(4.3%)
same,"All cause ER visit >6 h, hospitalization, or death: total",[3],30
same,"All cause ER visit, hospitalization, or death: percentage",[3],(13.9%)
same,"All cause ER visit, hospitalization, or death: total",[3],97
same,All cause death or hospitalization due to COVID-19: percentage,[3],(3.2%)
same,All cause death or hospitalization due to COVID-19: total,[3],22
same,Days of hospitalization,[3],0 days
same,Days on mechanical ventilation,[3],0 days
same,Days to recovery: median,[3],14 days
same,Death due to COVID-19: percentage,[3],(0.1%)
same,Death due to COVID-19: total,[3],1
same,Death or hospitalization due to COVID-19: percentage,[3],(2.9%)
same,Death or hospitalization due to COVID-19: total,[3],20
same,Hospitalization for COVID-19 (excluding those resulting in death): percentage,[3],(2.7%)
same,Hospitalization for COVID-19 (excluding those resulting in death): total,[3],19
same,Hospitalization or ER (any duration) for COVID-19: percentage,[3],(10.9%)
